Data on 3 molecules can be found in paper doi:10.1101/247882 (bioRxiv, 2018).

By stoichiometry N is commonly meant the number of molecules, sites or subunits per partner or assembly.

Data set [1] concerns the target Truncated Synechocystis FRP spanning amino acids 8-109 (Synechocystis sp. PCC 6803). The experiment in a line: SEC-MALS + other: SAXS. On the technique in general: In gel filtration, larger molecules generally elute earlier.
Data set [2] addresses T1, Synechocystis OCP lacking the N-terminal extension, construct OCP_(13-317), holoprotein (Synechocystis sp. PCC 6803, UniProt P74102 13-317).
T1 sequence: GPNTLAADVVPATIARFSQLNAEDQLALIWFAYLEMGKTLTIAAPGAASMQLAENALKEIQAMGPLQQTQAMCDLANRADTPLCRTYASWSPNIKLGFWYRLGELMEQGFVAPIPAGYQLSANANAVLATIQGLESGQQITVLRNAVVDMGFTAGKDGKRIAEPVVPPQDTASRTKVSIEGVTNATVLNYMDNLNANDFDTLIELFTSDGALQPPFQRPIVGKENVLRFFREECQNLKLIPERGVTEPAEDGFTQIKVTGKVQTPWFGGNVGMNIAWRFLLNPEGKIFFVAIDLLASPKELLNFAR
The experiment in a line: SEC-MALS.

Data set [3] deals with the molecule itself. The experiment in a line: SAXS.

As for “Truncated Synechocystis FRP spanning amino acids 8-109 (domain or fragment)”, the stoichiometry N in data set [1] was 2.

B1: Synechocystis FRP (fluorescence recovery protein), wild-type construct with uncleavable N-terminal His6 tag and linker (natural protein)
chain: LQTAEAPWSQAETQSAHALFRKAYQRELDGLLATVQAQASQITQIDDLWKLHDFLSAKRHEIDGKYDDRQSVIIFVFAQLLKEGLVQAEELTFLAADKQSKIKALARL
B1: the “stoichiometry N” value in data set [2] amounted to 2 FRP per OCP.

B2: Arthrospira maxima FRP (natural protein)
chain: MSEINWSEQDKNAAVDALHKAYEREVKILIDEVKQKAFNLTEIDEVWKLHDFLSARRHDIDGKYDYRDAASVFVLATLVKQGWLSLEELQVLGQDKLAKISALTRL
B2: the “stoichiometry N” value in data set [3] is 2; in data set [2], 1 FRP per OCP.
